Measured values taken from patent US20150110744A1 (INTER K, published 2015).

Experiments:
Experiment in all cases: cell-based or functional assay
[1] = molecular target: c-Src (h) (human (printed as '(h)'), UniProt P12931 1-536, limits assumed)
[2] = molecular target: Akt3 (PKB gamma) (human (printed as '(h)'), UniProt Q9Y243 1-479, limits assumed)
[3] = molecular target: Akt2 (PKB beta) (human (printed as '(h)'), UniProt P31751 1-481, limits assumed)
Sequence of Akt2 (PKB beta) (human (printed as '(h)'), UniProt P31751 1-481, limits assumed) (P31751 whole entry): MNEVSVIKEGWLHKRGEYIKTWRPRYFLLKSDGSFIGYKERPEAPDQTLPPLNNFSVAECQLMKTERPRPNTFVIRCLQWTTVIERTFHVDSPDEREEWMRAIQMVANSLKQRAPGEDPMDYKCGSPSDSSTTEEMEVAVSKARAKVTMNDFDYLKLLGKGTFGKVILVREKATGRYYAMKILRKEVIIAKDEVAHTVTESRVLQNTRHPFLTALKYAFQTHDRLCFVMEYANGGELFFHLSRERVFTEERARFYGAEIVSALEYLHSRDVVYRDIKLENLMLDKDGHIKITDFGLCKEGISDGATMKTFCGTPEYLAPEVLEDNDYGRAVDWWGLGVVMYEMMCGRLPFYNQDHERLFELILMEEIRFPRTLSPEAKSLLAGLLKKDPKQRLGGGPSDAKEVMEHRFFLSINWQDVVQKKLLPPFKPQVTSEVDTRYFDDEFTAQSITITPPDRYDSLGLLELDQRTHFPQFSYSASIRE

Sequence of Akt3 (PKB gamma) (human (printed as '(h)'), UniProt Q9Y243 1-479, limits assumed) (Q9Y243 whole entry): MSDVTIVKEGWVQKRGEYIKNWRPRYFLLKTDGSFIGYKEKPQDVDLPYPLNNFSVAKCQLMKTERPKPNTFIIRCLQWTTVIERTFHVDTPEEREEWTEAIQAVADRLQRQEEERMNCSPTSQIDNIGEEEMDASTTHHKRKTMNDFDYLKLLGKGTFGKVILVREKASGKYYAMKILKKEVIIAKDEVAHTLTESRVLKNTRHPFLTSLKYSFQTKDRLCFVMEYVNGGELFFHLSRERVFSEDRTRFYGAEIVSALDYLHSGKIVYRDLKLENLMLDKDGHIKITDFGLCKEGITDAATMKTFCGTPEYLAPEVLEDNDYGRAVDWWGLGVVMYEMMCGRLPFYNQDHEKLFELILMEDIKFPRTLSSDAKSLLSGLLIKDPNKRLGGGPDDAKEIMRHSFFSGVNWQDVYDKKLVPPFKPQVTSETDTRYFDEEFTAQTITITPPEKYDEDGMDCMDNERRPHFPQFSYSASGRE

Row | Binder | Inhibitory Activity (%), cell-free in vitro kinase assay, peptide 50 µM [1] [%] | Inhibitory Activity (%), cell-free in vitro kinase assay, peptide 50 µM [2] [%] | Inhibitory Activity (%), cell-free in vitro kinase assay, peptide 50 µM [3] [%]
1 | RAKAKAAAAR [RAKAKAAAAR peptide] | 27 | 52 | 0
2 | RSKAKNPLYR [RSKAKNPLYR peptide (β6 integrin derived)] | 53 | 8 | 3
3 | RVKVKVVVVR [RVKVKVVVVR peptide] | 43 | 93 | 89
4 | RAAKAARAAK [RAAKAARAAK peptide] | 3 | 2 | 0
